# In patent US20050186197A1:
# Positions of bridges follow the written chain, without caps; N, C: chain ends. No end group written: not given here.
# T1: TEM-1 β-lactamase, P62593
# T1 chain: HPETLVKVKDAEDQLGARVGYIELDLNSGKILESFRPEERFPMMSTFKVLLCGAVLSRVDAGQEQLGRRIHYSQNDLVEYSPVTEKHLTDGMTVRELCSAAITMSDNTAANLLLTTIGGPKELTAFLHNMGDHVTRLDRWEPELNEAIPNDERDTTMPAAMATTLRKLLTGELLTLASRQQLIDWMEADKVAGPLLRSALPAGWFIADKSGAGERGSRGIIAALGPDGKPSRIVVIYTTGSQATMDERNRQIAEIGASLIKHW
# Experiments:
# TEM-1 β-lactamase = TEM-1 β-lactamase (UniProt P62593); assay: β-lactamase inhibition assay (cephalosporin C)
# [1] = target: class C β-lactamase P99 from Enterobacter cloacae (Enterobacter cloacae) (UniProt P05364); assay: β-lactamase inhibition assay (cephalosporin C)
# [2] = target: T1, TEM-1 β-lactamase, P62593; assay: ratio of Ki values, β-lactamase inhibition assay
# [3] = target: T2, class C β-lactamase P99 from Enterobacter cloacae (Enterobacter cloacae), P05364; assay: β-lactamase inhibition assay (cephalosporin C), Ki from IC50 by Cheng-Prusoff
# T2 sequence (P05364 21-381 limits assumed): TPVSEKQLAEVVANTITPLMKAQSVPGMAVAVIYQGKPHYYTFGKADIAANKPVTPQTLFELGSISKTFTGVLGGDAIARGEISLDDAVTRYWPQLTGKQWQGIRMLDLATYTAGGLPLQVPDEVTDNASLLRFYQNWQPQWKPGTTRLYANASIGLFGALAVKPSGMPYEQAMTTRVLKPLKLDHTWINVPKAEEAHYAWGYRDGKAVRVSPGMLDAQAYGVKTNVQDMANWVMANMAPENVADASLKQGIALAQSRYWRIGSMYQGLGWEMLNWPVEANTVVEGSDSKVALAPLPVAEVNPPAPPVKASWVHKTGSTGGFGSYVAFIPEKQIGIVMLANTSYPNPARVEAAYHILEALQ
# [4] = target: T1, TEM-1 β-lactamase, P62593; assay: as above
# [5] = target: T2, class C β-lactamase P99 from …; assay: ratio of Ki values, β-lactamase inhibition assay
# [6] = target: T1, TEM-1 β-lactamase, P62593; assay: β-lactamase inhibition assay, disulfide-bonded peptide
molecule,measurement,setting,value
RR-NH2 (peptide),Ki,TEM-1 β-lactamase,> 2 mM
same,Ki,[1],> 2 mM
RRGHYY-NH2 [RRGHYY-NH2],fold improvement in affinity relative to disulfide bonded …-NH2,[2],25 fold
same,fold improvement in affinity relative to …-NH2,[2],2 fold
same,Ki,[3],140 µM
same,Ki,[4],136 µM
HSAYSDTRRGDYG-NH2 […-NH2],fold increase in binding affinity relative to the cysteine peptide …-NH2,[2],10 fold
same,Ki,[3],254 µM
same,Ki,[4],298 µM
AAGHYY-NH2 [AAGHYY-NH2],fold increase in Ki relative to RRGHYY-NH2,[5],3 fold
same,fold increase in Ki relative to RRGHYY-NH2,[2],3 fold
same,Ki,[3],468 µM
same,Ki,[4],438 µM
HSACSDTRRGDCG-NH2 (disulfide 4-12 (inferred)) […-NH2 (disulfide-bonded soluble peptide)],Ki,[6],3.5 mM
